Measurements as given in US20150087807A1.

Target: synthetic mimetic peptide m1E41920
Test: indirect ELISA, m1E41920 peptide coated, nonlinear regression (GraphPad Prism)

B1: humanized single chain variable fragment of 1E4 (huscFv1E4) (scFv)
scFv: QCLVESGGGVVQPGRSLRLSCAASGFTFSNYRVHWVRQAPGKGLEWIAVIAVKSDNYGANYAESVKGRFTISRDNSKNTLYLQMNSLRAEDTAVYYCRSTVVVMGDYFAMDYWGQGTSVTVSSGGGGSGGGGSGGGGSDIVLTQSPAFLSVTPGEKVTITCRASQNIGTYIHWYQQKPDQAPKLLIKYASESVSGVPSRFSGSGSGTDFTFTISSLEAEDAATYYCQQSNTWPYTFGGGTKLEIKRADAAPTVSKLAAALEHHHHHH
  EC50: 62.3 nM

B2: recombinant murine single chain variable fragment of 1E4 (muscFv1E4) (scFv)
scFv: ECLEESGGGLVRPGNSLKLSCVTSGFTFSNYRVHWLRQPPGKRLEWIAVIAVKSDNYGANYAESVKGRFTISRDDSKSSVYLQMNRLREEDTATYYCRSTVVVMGDYFAMDYWGQGTSVTVSSGGGGSGGGGSGGGGSDIELTQSPAILSVSPGERVSFSCRASQNIGTYIHWYQQRTNGSPRLLIKYASESVSGIPSRFSGRGSGTDFTLSISSVESEDIADYYCQQSNTWPYTFGGGTKLEIKRADAAPTVSKLAAALEHHHHHH
  EC50: 73.1 nM
